Measurements as given in IntAct's records for PubMed 25910212.

B1: Beta-crystallin A4 (Homo sapiens), P53673 (parent)
chain: MTLQCTKSAGPWKMVVWDEDGFQGRRHEFTAECPSVLELGFETVRSLKVLSGAWVGFEHAGFQGQQYILERGEYPSWDAWGGNTAYPAERLTSFRPAACANHRDSRLTIFEQENFLGKKGELSDDYPSLQAMGWEGNEVGSFHVHSGAWVCSQFPGYRGFQYVLECDHHSGDYKHFREWGSHAPTFQVQSIRRIQQ
partner: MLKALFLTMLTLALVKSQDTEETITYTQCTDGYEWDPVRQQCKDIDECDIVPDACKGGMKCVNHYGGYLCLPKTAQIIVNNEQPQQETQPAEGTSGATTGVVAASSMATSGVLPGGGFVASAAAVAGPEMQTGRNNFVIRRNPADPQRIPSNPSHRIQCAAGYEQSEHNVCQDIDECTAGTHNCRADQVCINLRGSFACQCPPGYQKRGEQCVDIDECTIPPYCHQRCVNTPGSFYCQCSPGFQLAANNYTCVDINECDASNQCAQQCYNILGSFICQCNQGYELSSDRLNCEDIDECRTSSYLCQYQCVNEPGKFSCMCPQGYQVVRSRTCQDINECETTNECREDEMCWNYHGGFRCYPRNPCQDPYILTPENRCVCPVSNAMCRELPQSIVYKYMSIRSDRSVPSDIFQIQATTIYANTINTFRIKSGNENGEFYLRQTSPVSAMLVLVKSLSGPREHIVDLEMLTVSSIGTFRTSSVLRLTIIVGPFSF
B2: Glutathione S-transferase A2 (Homo sapiens), P09210 (parent)
chain: MAEKPKLHYSNIRGRMESIRWLLAAAGVEFEEKFIKSAEDLDKLRNDGYLMFQQVPMVEIDGMKLVQTRAILNYIASKYNLYGKDIKEKALIDMYIEGIADLGEMILLLPFSQPEEQDAKLALIQEKTKNRYFPAFEKVLKSHGQDYLVGNKLSRADIHLVELLYYVEELDSSLISSFPLLKALKTRISNLPTVKKFLQPGSPRKPPMDEKSLEESRKIFRF
partner: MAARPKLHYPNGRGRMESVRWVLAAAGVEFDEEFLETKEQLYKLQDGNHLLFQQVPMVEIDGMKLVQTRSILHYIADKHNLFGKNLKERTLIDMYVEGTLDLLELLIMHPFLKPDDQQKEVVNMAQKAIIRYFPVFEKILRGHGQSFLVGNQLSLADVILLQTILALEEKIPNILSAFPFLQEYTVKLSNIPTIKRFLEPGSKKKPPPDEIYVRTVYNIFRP
B3: EF-hand domain-containing protein 1 (Homo sapiens), Q5JVL4 (parent)
chain: MVSNPVHGLPFLPGTSFKDSTKTAFHRSQTLSYRNGYAIVRRPTVGIGGDRLQFNQLSQAELDELASKAPVLTYGQPKQAPPADFIPAHVAFDKKVLKFDAYFQEDVPMSTEEQYRIRQVNIYYYLEDDSMSVIEPVVENSGILQGKLIKRQRLAKNDRGDHYHWKDLNRGINITIYGKTFRVVDCDQFTQVFLESQGIELNPPEKMALDPYTELRKQPLRKYVTPSDFDQLKQFLTFDKQVLRFYAIWDDTDSMYGECRTYIIHYYLMDDTVEIREVHERNDGRDPFPLLMNRQRVPKVLVENAKNFPQCVLEISDQEVLEWYTAKDFIVGKSLTILGRTFFIYDCDPFTRRYYKEKFGITDLPRIDVSKREPPPVKQELPPYNGFGLVEDSAQNCFALIPKAPKKDVIKMLVNDNKVLRYLAVLESPIPEDKDRRFVFSYFLATDMISIFEPPVRNSGIIGGKYLGRTKVVKPYSTVDNPVYYGPSDFFIGAVIEVFGHRFIILDTDEYVLKYMESNAAQYSPEALASIQNHVRKREAPAPEAESKQTEKDPGVQELEALIDTIQKQLKDHSCKDNIREAFQIYDKEASGYVDRDMFFKICESLNVPVDDSLVKELIRMCSHGEGKINYYNFVRAFSN
partner: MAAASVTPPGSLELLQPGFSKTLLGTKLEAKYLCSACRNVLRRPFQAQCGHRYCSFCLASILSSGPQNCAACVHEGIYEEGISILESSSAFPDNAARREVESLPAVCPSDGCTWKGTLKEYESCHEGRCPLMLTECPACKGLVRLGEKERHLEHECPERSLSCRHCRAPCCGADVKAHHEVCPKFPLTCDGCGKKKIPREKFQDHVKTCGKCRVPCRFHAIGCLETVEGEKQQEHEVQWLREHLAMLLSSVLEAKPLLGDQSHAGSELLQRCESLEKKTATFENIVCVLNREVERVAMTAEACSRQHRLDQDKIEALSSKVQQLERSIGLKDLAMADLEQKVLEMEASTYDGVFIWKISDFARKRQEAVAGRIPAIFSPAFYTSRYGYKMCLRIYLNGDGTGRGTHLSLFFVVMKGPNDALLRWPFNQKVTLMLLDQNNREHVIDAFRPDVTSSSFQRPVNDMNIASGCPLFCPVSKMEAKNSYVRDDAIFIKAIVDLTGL
B4: DNA ligase 4 (Homo sapiens), P49917 (parent)
chain: MAASQTSQTVASHVPFADLCSTLERIQKSKGRAEKIRHFREFLDSWRKFHDALHKNHKDVTDSFYPAMRLILPQLERERMAYGIKETMLAKLYIELLNLPRDGKDALKLLNYRTPTGTHGDAGDFAMIAYFVLKPRCLQKGSLTIQQVNDLLDSIASNNSAKRKDLIKKSLLQLITQSSALEQKWLIRMIIKDLKLGVSQQTIFSVFHNDAAELHNVTTDLEKVCRQLHDPSVGLSDISITLFSAFKPMLAAIADIEHIEKDMKHQSFYIETKLDGERMQMHKDGDVYKYFSRNGYNYTDQFGASPTEGSLTPFIHNAFKADIQICILDGEMMAYNPNTQTFMQKGTKFDIKRMVEDSDLQTCYCVFDVLMVNNKKLGHETLRKRYEILSSIFTPIPGRIEIVQKTQAHTKNEVIDALNEAIDKREEGIMVKQPLSIYKPDKRGEGWLKIKPEYVSGLMDELDILIVGGYWGKGSRGGMMSHFLCAVAEKPPPGEKPSVFHTLSRVGSGCTMKELYDLGLKLAKYWKPFHRKAPPSSILCGTEKPEVYIEPCNSVIVQIKAAEIVPSDMYKTGCTLRFPRIEKIRDDKEWHECMTLDDLEQLRGKASGKLASKHLYIGGDDEPQEKKRKAAPKMKKVIGIIEHLKAPNLTNVNKISNIFEDVEFCVMSGTDSQPKPDLENRIAEFGGYIVQNPGPDTYCVIAGSENIRVKNIILSNKHDVVKPAWLLECFKTKSFVPWQPRFMIHMCPSTKEHFAREYDCYGDSYFIDTDLNQLKEVFSGIKNSNEQTPEEMASLIADLEYRYSWDCSPLSMFRRHTVYLDSYAVINDLSTKNEGTRLAIKALELRFHGAKVVSCLAEGVSHVIIGEDHSRVADFKAFRRTFKRKFKILKESWVTDSIDKCELQEENQYLI

Variants of: B1
Details: with fbln3_human EFEMP1, Q12805

effect of a mutation on the interaction | Variant
disrupting interaction strength | V36M

Variants of: B2
Details: with gsta4_human GSTA4, O15217

effect of a mutation on the interaction | Variant
with no effect | P110S

Variants of: B3
Details: with traf2_human TRAF2, Q12933

effect of a mutation on the interaction | Variant
disrupting interaction strength | A394S
with no effect | R159W
disrupting interaction strength | R221H
with no effect | T508R
disrupting interaction strength | P77T
with no effect | M448T

Variants of: B4
Details: with xrcc4_human XRCC4, Q13426
Sequence of xrcc4_human XRCC4, Q13426 (Q13426 whole entry): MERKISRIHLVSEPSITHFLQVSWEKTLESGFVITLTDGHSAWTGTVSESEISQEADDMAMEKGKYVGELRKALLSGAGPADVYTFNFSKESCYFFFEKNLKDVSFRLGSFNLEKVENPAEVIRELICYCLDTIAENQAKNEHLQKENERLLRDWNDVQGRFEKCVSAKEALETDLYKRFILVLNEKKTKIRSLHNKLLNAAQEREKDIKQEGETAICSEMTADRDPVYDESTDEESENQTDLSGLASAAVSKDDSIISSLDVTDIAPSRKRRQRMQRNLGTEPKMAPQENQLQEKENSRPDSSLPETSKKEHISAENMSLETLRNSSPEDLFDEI

effect of a mutation on the interaction | Variant
with no effect | A857T
disrupting interaction strength | A3V
with no effect | T9I
